We go through eight molecules from paper doi:10.64898/2025.12.19.695307 (bioRxiv, 2025).

Among the targets are SARS-CoV-2 wild-type RBD (SARS-CoV-2, UniProt P0DTC2); Bat-RaTG13 RBD (Bat coronavirus RaTG13, UniProt A0ABF7PLN6); GX2013 RBD (SARSr-CoV BtRs-BetaCoV/GX2013); Bat-WIV1 RBD (Bat SARS-like coronavirus WIV1, UniProt U5WI05); Bat-RsSHC014 RBD (Bat SARS-like coronavirus RsSHC014, UniProt U5WLK5); HeB2013 RBD (SARSr-CoV BtRf-BetaCoV/HeB2013); SARS-CoV-1 RBD (SARS-CoV-1, strain not named, UniProt P59594).

Holding throughout (assay): BLI

B1: BD56-104-R1-32 HCDR3 (antibody, V domains shown)
VH: QVQLVQSGAEVKTPGSSVKVSCKASGGTFGSHSITWVRQAPGQGLEWMGRVIPILGIPDFAESFQGRVAITADRSTSTAHMELSRLRSEDTAVYYCARENGYSGYGAAANFDLWGQGTLVTVSS
VL: QSVLTQPPSVSGAPGQRVTISCTGSNSNIGAGYDVHWYRQLPGTAPKLLIYVNNNRPSGVPDRFSGSRSGASASLAITGLQAEDEAEYYCQSYDSSLSGSIFGGGTKLTVL
Take B1: the binding result with SARS-CoV-2 wild-type RBD is given as “binds”.

B2: BD56-104 (antibody, V domains shown)
VH: QVQLVQSGAEVKTPGSSVKVSCKASGGTFGSHSITWVRQAPGQGLEWMGRVIPILGIPDFAESFQGRVAITADRSTSTAHMELSRLRSEDTAVYYCARDVGYSGSGSSNYFDSWGQGTLVTVSS
VL: QSVLTQPPSVSGAPGQRVTISCTGSNSNIGAGYDVHWYRQLPGTAPKLLIYVNNNRPSGVPDRFSGSRSGASASLAITGLQAEDEAEYYCQSYDSSLSGSIFGGGTKLTVL
On to B2, for which the binding result with Bat-RaTG13 RBD was “binds”; in the test with SARS-CoV-2 wild-type RBD, “binds”; with GX2013 RBD, “binds”; with Bat-WIV1 RBD, “no binding (tested: 200 nM RBD)”; with Bat-RsSHC014 RBD, “binds”; with HeB2013 RBD it was “binds”.

B3: ZL525 (antibody, V domains shown)
V domain 1: QVQLVQSGAEVKKPGSSMKVSCQASGGTFSSHPISWIRQAPGQGLEWMGRIIPIAGMTDYGQKFQGRITITADTSTSTSYVELRGLRSQDTAFYYCAKDVGYSDYGSAYYFHTWGQGTLITVSS
V domain 2: QSVLTQPPSVSGAPGQRVTISCTGSNSNIGAGYDVHWYQQLPGTAPKLLIYRNNKRPSGVPDRFSGSKSDTSASLAITGLQAEDEAHYYCQSFDSSLGGSLFGGGTKLAVL
On to B3, for which the binding result in the test with Bat-RaTG13 RBD, with SARS-CoV-2 wild-type RBD, with GX2013 RBD, with Bat-WIV1 RBD, with Bat-RsSHC014 RBD and with SARS-CoV-1 RBD was “binds” throughout. Further, the binding result with HeB2013 RBD was “binds”.

B4: C092 (antibody, V domains shown)
VH: QVQLVQSGAEVKKPGSSVKVSCKASGGSFTNHFISWVRQAPGQGLEWMGRIIPILGTANYAQNFQGRVMMTADKSTSTAYMELSSLRSEDTAVYYCARDSGYSGYGSTYYMDVWGKGTTVTVSS
VL: QSVLTQPPSVSGAPGQRVTISCTGSNSNIGAGYDVHWYQQLPGAAPKLLIYGNNNRPSGVPDRFSGSKSDTSASLAITGLQVEDEADYYCQSYDSSLSDSVFGSGTKVTVL
B4: the binding result with Bat-RaTG13 RBD, with SARS-CoV-2 wild-type RBD, with GX2013 RBD, with Bat-WIV1 RBD, with Bat-RsSHC014 RBD and with HeB2013 RBD was “binds” throughout.

B5: BD56-597 (antibody, V domains shown)
VH: QVQLVQSGAEVKKPGSSVKVSCKASGGTFSTYPISWVRQAPGQGVEWMGAIIPILGTTDYAQIFQGRVTITADKSTSTAYMELSSLRPEDTAVYYCARERGYSGYGAAYYFDSWGQGTLVTVSS
VL: QSVLTQPPSVSGAPGQRVTISCTGSDSNIGAGYDVHWYQQLPGTAPKLLIYVNINRPSGVPDRFSGSKSATSASLAITGLQAEDEADYYCQSYDSSLSGVVFGGGTKLTVL
As to B5, the binding result in the test with Bat-RaTG13 RBD, in the test with SARS-CoV-2 wild-type RBD, with GX2013 RBD, with Bat-WIV1 RBD, with Bat-RsSHC014 RBD and in the test with HeB2013 RBD was “binds” each time.

B6: R1-32 (antibody, V domains shown)
VH: EVQLVESGAEVKKPGSSVKVSCKASGGTFSSYAISWVRQAPGQGLEWMGGIIPILGIANYAQKFQGRVTITADKSTSTAYMELSSLRSEDTAVYYCARENGYSGYGAAANFDLWGRGTLVTVSS
VL: QSVLTQPPSVSGAPGQRVTISCTGSSSNIGAGYDVHWYQQLPGTAPKLLIYGNSNRPSGVPDRFSGSKSGTSASLAITGLQAEDEADYYCQSYDSSLSGSVFGGGTKLTVL
For the molecule B6, the binding result with Bat-RaTG13 RBD, in the test with SARS-CoV-2 wild-type RBD and with Bat-RsSHC014 RBD was “binds” each time.

B7: R1-32-AAM (R1-32-artificial-affinity-matured) (antibody, V domains shown)
VH: EVQLVESGAEVKKPGSSVKVSCKASGGTFSSYFISWVRQAPGQGLEWMGGIIPILGIADYAEKFQGRVTITADKSTSTAYMELSSLRSEDTAVYYCARENGYSGYGAAYNFDLWGRGTLVTVSS
VL: QSVLTQPPSVSGAPGQRVTISCTGSDSNIGAGYDVHWYQQLPGTAPKLLIYGNSNRPSGVPDRFSGSKSDTSASLAITGLQAEDEADYYCQSYDSSLSDSVFGGGTKLTVL
Regarding B7, the binding result with SARS-CoV-2 wild-type RBD is listed as “binds”.

B8: C807 (antibody, V domains shown)
VH: QVQLVQSGAEAKKPGSSVKVSCKASGGTFKSYIINWVRQAPGQGLEWMGEIIPIFGTANYAQKFQGRVTSTADESTSTAYMELSSLKSEDTAVYYCARGRGYSGYGASYYFDYWGQGTLVTVSS
VL: QSVLTQPPSVSGAPGQRVTISCTGSNSNIGAGYDVHWYQQLPGTAPKLLIYANSNRPSGVPDRFSGSKSGTSASLAITGLQAEDEADYYCQSYDSGLSGSVFGGGTKLTVL
Regarding B8, the binding result in the test with Bat-RaTG13 RBD, in the test with SARS-CoV-2 wild-type RBD, in the test with GX2013 RBD, with Bat-WIV1 RBD, with Bat-RsSHC014 RBD and with HeB2013 RBD was “binds” in each case.
